In publication PMC8976148, “Long-range structural preformation in yes-associated protein precedes encounter complex formation with TEAD” (iScience, 2022):
Where a chain is given by its changes, count along the chain named.

Biological target: T1, Biotinylated N-Avitagged-TEAD4^217-434 (UniProt Q15561 217-434, biotin (biotinylated Avitag))
T1 construct: TEAD4, residues 217-434; not shown: Avitag, N-terminal, kept
Assay: FRET or BRET; TR-FRET competition: biotinylated N-Avitagged TEAD4 217-434 (1 nM) on LANCE Eu-W1024 streptavidin (0.5 nM), Cy5-labelled YAP as tracer, serial dilutions of the YAP proteins; 50 mM HEPES pH 7.4, 100 mM KCl, 0.05% Tween-20, 0.25 mM TCEP, 0.05% BSA, 2% DMSO; 1 h at room temperature
Details: both partners purified

T1 sequence (Q15561 217-434): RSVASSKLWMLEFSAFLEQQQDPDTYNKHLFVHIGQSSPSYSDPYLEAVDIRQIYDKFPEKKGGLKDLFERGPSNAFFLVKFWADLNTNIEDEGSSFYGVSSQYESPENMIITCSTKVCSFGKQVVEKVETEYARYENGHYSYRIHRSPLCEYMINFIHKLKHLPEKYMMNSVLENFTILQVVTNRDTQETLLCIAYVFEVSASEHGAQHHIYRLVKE

B1: YAP^50-171 (domain or fragment, UniProt P46937 50-171, looked up)
chain: AGHQIVHVRGDSETDLEALFNAVMNPKTANVPQTVPMRLRKLPDSFFKPPEPKSHSRQASTDAGTAGALTPQHVRAHSSPASLQLGAVSPGTLTPTGVVSGPAATPTAQHLRQSSFEIPDDV
notes: YAP (Yes-associated protein), residues 50-171; 15N-labelled in the intermolecular PRE control; also called YAP^wt; Yes-associated protein; source: E. coli Tuner(DE3), purified (HisTrap FF, 3C protease cleavage, heating to 90°C, size exclusion); not shown: His6, N-terminal, cleaved
  binding result: binds

B2: YAP^50-171 A71C (domain or fragment, UniProt P46937 50-171, looked up)
chain: B1 chain with A22C
notes: YAP (Yes-associated protein), residues 50-171; source: E. coli Tuner(DE3), purified (HisTrap FF, 3C protease cleavage, heating to 90°C, size exclusion; buffers with 1 mM DTT); not shown: His6, N-terminal, cleaved
  binding result: binds

B3: YAP^50-171 D60C (domain or fragment, UniProt P46937 50-171, looked up)
chain: B1 chain with D11C
notes: as for B2
  binding result: binds

B4: YAP^50-171 K90C (domain or fragment, UniProt P46937 50-171, looked up)
chain: B1 chain with K41C
notes: as for B2
  binding result: binds

B5: YAP^50-171 Q158C (domain or fragment, UniProt P46937 50-171, looked up)
chain: B1 chain with Q109C
notes: as for B2
  binding result: binds

B6: YAP^50-171 S103C (domain or fragment, UniProt P46937 50-171, looked up)
chain: B1 chain with S54C
notes: as for B2
  binding result: binds

B7: YAP^50-171 S127C (domain or fragment, UniProt P46937 50-171, looked up)
chain: B1 chain with S78C
notes: as for B2
  binding result: binds

B8: YAP^50-171 S138C (domain or fragment, UniProt P46937 50-171, looked up)
chain: B1 chain with S89C
notes: as for B2
  binding result: binds

B9: YAP^50-171 S149C (domain or fragment, UniProt P46937 50-171, looked up)
chain: B1 chain with S100C
notes: as for B2
  binding result: binds

B10: YAP^50-171 S164C (domain or fragment, UniProt P46937 50-171, looked up)
chain: B1 chain with S115C
notes: as for B2
  binding result: binds

B11: YAP^50-171 T119C (domain or fragment, UniProt P46937 50-171, looked up)
chain: B1 chain with T70C
notes: as for B2
  binding result: binds

B12: YAP^50-171 V80C (domain or fragment, UniProt P46937 50-171, looked up)
chain: B1 chain with V31C
notes: as for B2
  binding result: binds
